The chains are these.
B3: ΔNSspH1 (161-700) (domain or fragment)
chain: AEYDAVWSKWERDAPAGESPGRAAVVQEMRDCLNNGNPVLNVGASGLTTLPDRLPPHITTLVIPDNNLTSLPELPEGLRELEVSGNLQLTSLPSLPQGLQKLWAYNNWLASLPTLPPGLGDLAVSNNQLTSLPEMPPALRELRVSGNNLTSLPALPSGLQKLWAYNNRLTSLPEMSPGLQELDVSHNQLTRLPQSLTGLSSAARVYLDGNPLSVRTLQALRDIIGHSGIRIHFDMAGPSVPREARALHLAVADWLTSAREGEAAQADRWQAFGLEDNAAAFSLVLDRLRETENFKKDAGFKAQISSWLTQLAEDAALRAKTFAMATEATSTCEDRVTHALHQMNNVQLVHNAEKGEYDNNLQGLVSTGREMFRLATLEQIAREKAGTLALVDDVEVYLAFQNKLKESLELTSVTSEMRFFDVSGVTVSDLQAAELQVKTAENSGFSKWILQWGPLHSVLERKVPERFNALREKQISDYEDTYRKLYDEVLKSSGLVDDTDAERTIGVSAMDSAKKEFLDGLRALVDEVLGSYLTARWRLN
notes: also called WT SspH1; source: E. coli BL21 Gold, purified (nickel-nitrilotriacetic acid resin, 3C protease, gel filtration)

Holding throughout (settings): both partners purified
For assay [1], the target named is T1, full-length SspH1 (1 to 700) (Salmonella, UniProt D0ZVG2 1-700).
T1 construct: also called FL SspH1; FL protein; source: E. coli BL21 Gold, purified (nickel-nitrilotriacetic acid resin, 3C protease, gel filtration)
T1 sequence: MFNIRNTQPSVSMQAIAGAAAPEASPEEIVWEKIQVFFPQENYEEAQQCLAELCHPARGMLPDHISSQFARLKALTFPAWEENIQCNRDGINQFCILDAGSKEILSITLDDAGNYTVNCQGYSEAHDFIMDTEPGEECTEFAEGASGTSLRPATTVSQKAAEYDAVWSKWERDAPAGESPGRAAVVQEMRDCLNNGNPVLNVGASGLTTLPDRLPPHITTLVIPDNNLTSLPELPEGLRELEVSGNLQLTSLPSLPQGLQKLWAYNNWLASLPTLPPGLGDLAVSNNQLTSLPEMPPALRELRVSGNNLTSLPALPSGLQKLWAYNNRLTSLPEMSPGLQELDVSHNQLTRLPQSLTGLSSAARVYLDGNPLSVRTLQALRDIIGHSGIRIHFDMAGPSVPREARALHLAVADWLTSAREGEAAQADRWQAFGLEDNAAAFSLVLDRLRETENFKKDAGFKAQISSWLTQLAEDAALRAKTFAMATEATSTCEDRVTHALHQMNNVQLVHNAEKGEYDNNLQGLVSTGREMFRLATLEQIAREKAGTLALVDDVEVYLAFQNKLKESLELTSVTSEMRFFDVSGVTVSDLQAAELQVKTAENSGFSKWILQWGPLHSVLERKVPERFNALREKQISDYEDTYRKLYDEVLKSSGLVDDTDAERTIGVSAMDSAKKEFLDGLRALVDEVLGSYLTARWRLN
Kind of assay: SEC-MALS; SEC-MALLS of FL SspH1 and ΔNSspH1 alone and with the substrate PKN1; in the range of concentrations explored.

The assay “ΔNSspH1 (161-700)” concerns the target B3. The assay is described as above.
Another assay deals with T2, 15N-labeled ubiquitin (UniProt P0CG48 1-76, 15N isotope-enriched).
T2 construct: also called 15N-Ub; free Ub
Kind of assay: NMR titration; 15N-Ub titrated with SspH1 constructs; 1H-15N HSQC, 800 MHz; chemical shift perturbations and line broadening of Ub backbone amides.

B1: PKN1 HR1b domain (residues 122-199) (domain or fragment)
chain: not shown
notes: also called HR1b PKN1; substrate PKN1; source: E. coli BL21 Gold, purified (nickel-nitrilotriacetic acid resin, 3C protease, gel filtration)
Consider B1, for which the “stoichiometry N” value (in assay [1]; with ΔNSspH1 (161-700)) was 1 each time.

B2: SspH1 NEL domain (405 to 700) (domain or fragment)
chain: RALHLAVADWLTSAREGEAAQADRWQAFGLEDNAAAFSLVLDRLRETENFKKDAGFKAQISSWLTQLAEDAALRAKTFAMATEATSTCEDRVTHALHQMNNVQLVHNAEKGEYDNNLQGLVSTGREMFRLATLEQIAREKAGTLALVDDVEVYLAFQNKLKESLELTSVTSEMRFFDVSGVTVSDLQAAELQVKTAENSGFSKWILQWGPLHSVLERKVPERFNALREKQISDYEDTYRKLYDEVLKSSGLVDDTDAERTIGVSAMDSAKKEFLDGLRALVDEVLGSYLTARWRLN
notes: also called isolated NEL domain; source: E. coli BL21 Gold, purified (nickel-nitrilotriacetic acid resin, 3C protease, gel filtration)
As for B2, the binding result in the assay with 15N-labeled ubiquitin is reported as “binds”. On to B3, for which the binding result with 15N-labeled ubiquitin is reported as “binds”.

B4: E487R SspH1 (domain or fragment)
chain: AEYDAVWSKWERDAPAGESPGRAAVVQEMRDCLNNGNPVLNVGASGLTTLPDRLPPHITTLVIPDNNLTSLPELPEGLRELEVSGNLQLTSLPSLPQGLQKLWAYNNWLASLPTLPPGLGDLAVSNNQLTSLPEMPPALRELRVSGNNLTSLPALPSGLQKLWAYNNRLTSLPEMSPGLQELDVSHNQLTRLPQSLTGLSSAARVYLDGNPLSVRTLQALRDIIGHSGIRIHFDMAGPSVPREARALHLAVADWLTSAREGEAAQADRWQAFGLEDNAAAFSLVLDRLRETENFKKDAGFKAQISSWLTQLAEDAALRAKTFAMATRATSTCEDRVTHALHQMNNVQLVHNAEKGEYDNNLQGLVSTGREMFRLATLEQIAREKAGTLALVDDVEVYLAFQNKLKESLELTSVTSEMRFFDVSGVTVSDLQAAELQVKTAENSGFSKWILQWGPLHSVLERKVPERFNALREKQISDYEDTYRKLYDEVLKSSGLVDDTDAERTIGVSAMDSAKKEFLDGLRALVDEVLGSYLTARWRLN
notes: also called E487R mutant; source: E. coli BL21 Gold, purified (nickel-nitrilotriacetic acid resin, 3C protease, gel filtration)
Consider B4, for which the binding result in the assay with 15N-labeled ubiquitin is “binds”.
